The results in this text go back to patent US20250019454A1 (BIOCYTOGEN PHARMACEUTICALS BEIJING, published 2025).

Experiment [1] concerns the target T1, ΔCRD4-TNFR2 protein (with CRD4 deletion), on CHO-S cells (human, UniProt P20333 23-461).
T1 construct: also called CHO-SΔCRD4-TNFR2; TNFR2 lacking CRD4
T1 sequence: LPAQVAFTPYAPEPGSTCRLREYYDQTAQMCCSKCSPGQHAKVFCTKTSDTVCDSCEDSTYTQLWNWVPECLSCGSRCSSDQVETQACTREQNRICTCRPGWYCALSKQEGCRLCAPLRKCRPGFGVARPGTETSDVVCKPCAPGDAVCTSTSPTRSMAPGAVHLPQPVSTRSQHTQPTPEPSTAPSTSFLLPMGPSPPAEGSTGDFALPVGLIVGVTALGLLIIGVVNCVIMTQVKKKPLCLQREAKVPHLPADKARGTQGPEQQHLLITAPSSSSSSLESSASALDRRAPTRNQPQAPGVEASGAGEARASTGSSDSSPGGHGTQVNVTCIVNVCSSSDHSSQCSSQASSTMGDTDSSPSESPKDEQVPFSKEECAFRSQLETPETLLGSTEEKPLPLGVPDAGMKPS
In words: FACS on CHO-S cells with ΔCRD4-TNFR2. The source says: TNFR2 has four cysteine rich domains (CRD). In another experiment, FACS was used to detect the binding of anti-hTNFR2 antibodies to TNFR2 proteins with different structural domains. Secondary antibody (Alexa Fluor® 647 AffiniPure F(ab′) 2 Fragment Goat Anti-Human IgG, Fcγ fragment specific, Jackson ImmunoResearch Laboratories, Inc., Cat #: 151524) was used. The fluorescence-labeled secondary antibody can attach to the Fc region of the anti-hTNFR2 antibodies so that the anti-hTNFR2 antibodies that are bound to the ΔCRD cells can be detected by FACS. Specifically, ΔCRD1-TNFR2 protein (with CRD1 deleteion), ΔCRD2-TNFR2 protein (with CRD2 deleteion), ΔCRD3-TNFR2 protein (with CRD3 deleteion) or ΔCRD4-TNFR2 protein (with CRD4 deleteion) were expressed in CHO-S cells respectively, and then the binding between the cells and different anti-hTNFR2 antibodies was detected.

Experiment [2] deals with T2, human TNFR2 (expressed on cells) (human, UniProt P20333 23-461).
T2 sequence: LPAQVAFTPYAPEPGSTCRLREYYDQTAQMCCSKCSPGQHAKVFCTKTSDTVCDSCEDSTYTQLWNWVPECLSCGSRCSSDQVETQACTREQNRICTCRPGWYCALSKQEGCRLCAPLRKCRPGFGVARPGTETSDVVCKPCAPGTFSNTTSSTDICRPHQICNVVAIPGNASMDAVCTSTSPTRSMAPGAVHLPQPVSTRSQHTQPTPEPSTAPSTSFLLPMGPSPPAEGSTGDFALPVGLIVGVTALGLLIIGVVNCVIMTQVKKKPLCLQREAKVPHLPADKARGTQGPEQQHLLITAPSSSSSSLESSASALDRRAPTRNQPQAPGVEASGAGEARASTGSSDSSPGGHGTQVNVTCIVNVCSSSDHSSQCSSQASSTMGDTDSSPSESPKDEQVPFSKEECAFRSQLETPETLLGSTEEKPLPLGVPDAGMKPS
Put plainly: cell-based or functional assay.

B1: BC-1C3-IgG1 (antibody, V domains shown)
VH: QVQLVESGGGVVHPGKSLRLSCAASGFTFNIYGMHWVRQAPGKGLEWVALISYDGNDKYFADSVKGRFTISRDNSKNTLYLQMNSLRAEDTAVYYCAKAVDTAVVTFFDYWGQGTLVTVSS
VL: EIVMTQSPVTLSVSPGERATLSCRASQSVSSNLAWYQQKPGQAPRLLIYSASTRATGIPARFSGSGSGTEFTLTISSLQSEDLAVYYCQQYSNWPFTFGPGTKVDIK
notes: Human VH/VL joined to the human IgG1 subtype
What is called EC50 (read off the curve) is the concentration that produces a half-maximal response. Turning to B1, the binding result in experiment [1] is recorded as “no binding”. The “EC50 (read off the curve)” value in experiment [2] was approximately 0.4 µg/mL.
